Data reported in publication PMC5595295 (Acta Pharmaceutica Sinica. B, 2017).
Numbering of substitutions follows the chain as printed. Names may count otherwise.

Target: hA3G-HA (human, UniProt Q9HC16 1-384)
Test: co-IP

B1: hA3G W127A-EYFP (natural protein, human, UniProt Q9HC16 1-384, looked up)
chain: MKPHFRNTVERMYRDTFSYNFYNRPILSRRNTVWLCYEVKTKGPSRPPLDAKIFRGQVYSELKYHPEMRFFHWFSKWRKLHRDQEYEVTWYISWSPCTKCTRDMATFLAEDPKVTLTIFVARLYYFADPDYQEALRSLCQKRDGPRATMKIMNYDEFQHCWSKFVYSQRELFEPWNNLPKYYILLHIMLGEILRHSMDPPTFTFNFNNEPWVRGRHETYLCYEVERMHNDTWVLLNQRRGFLCNQAPHKHGFLEGRHAELCFLDVIPFWKLDLDQDYRVTCFTSWSPCFSCAQEMAKFISKNKHVSLCIFTARIYDDQGRCQEGLRTLAEAGAKISIMTYSEFKHCWDTFVDHQGCPFQPWDGLDEHSQDLSGRLRAILQNQEN
  percent inhibition of binding to wild type hA3G (co-IP, band quantification): ~80%

B2: hA3G Y124A-EYFP (natural protein, human, UniProt Q9HC16 1-384, looked up)
chain: B1 chain with Y124A, A127W
  percent inhibition of binding to wild type hA3G (co-IP, band quantification): < 50%
